Experimental findings from paper doi:10.1101/2021.03.11.435010 (bioRxiv, 2021) are described below.

B4: MED27 (natural protein)
chain: MADVINVSVNLEAFSQAISAIQALRSSVSRVFDCLKDGMRNKETLEGREKAFIAHFQDNLHSVNRDLNELERLSNLVGKPSENHPLHNSGLLSLDPVQDKTPLYSQLLQAYKWSNKLQYHAGLASGLLNQQSLKRSANQMGVSAKRRPKAQPTTLVLPPQYVDDVISRIDRMFPEMSIHLSRPNGTSAMLLVTLGKVLKVIVVMRSLFIDRTIVKGYNENVYTEDGKLDIWSKSNYQVFQKVTDHATTALLHYQLPQMPDVVVRSFMTWLRSYIKLFQAPCQRCGKFLQDGLPPTWRDFRTLEAFHDTCRQ
B5: MED28 (natural protein)
chain: MAAPLGGMFSGQPPGPPQAPPGLPGQASLLQAAPGAPRPSSSTLVDELESSFEACFASLVSQDYVNGTDQEEIRTGVDQCIQKFLDIARQTECFFLQKRLQLSVQKPEQVIKEDVSELRNELQRKDALVQKHLTKLRHWQQVLEDINVQHKKPADIPQGSLAYLEQASANIPAPLKPT
B6: MED20 (natural protein)
chain: MGVTCVSQMPVAEGKSVQQTVELLTRKLEMLGAEKQGTFCVDCETYHTAASTLGSQGQTGKLMYVMHNSEYPLSCFALFENGPCLIADTNFDVLMVKLKGFFQSAKASKIETRGTRYQYCDFLVKVGTVTMGPSARGISVEVEYGPCVVASDCWSLLLEFLQSFLGSHTPGAPAVFGNRHDAVYGPADTMVQYMELFNKIRKQQQVPVAGIR

What all share (experiment): cryo-EM structure
The target in one assay is T1, MED8 (human, UniProt Q96G25 1-268).
T1 sequence: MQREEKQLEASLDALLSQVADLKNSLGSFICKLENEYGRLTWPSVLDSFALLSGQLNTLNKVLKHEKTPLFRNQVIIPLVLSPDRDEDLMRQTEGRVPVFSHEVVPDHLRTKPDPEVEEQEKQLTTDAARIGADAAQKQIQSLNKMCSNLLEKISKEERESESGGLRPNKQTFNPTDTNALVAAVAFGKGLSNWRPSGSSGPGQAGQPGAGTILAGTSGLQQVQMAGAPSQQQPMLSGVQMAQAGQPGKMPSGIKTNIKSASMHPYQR

Another assay has as its target T2, TFIIB (human, UniProt Q00403 1-316).
T2 sequence: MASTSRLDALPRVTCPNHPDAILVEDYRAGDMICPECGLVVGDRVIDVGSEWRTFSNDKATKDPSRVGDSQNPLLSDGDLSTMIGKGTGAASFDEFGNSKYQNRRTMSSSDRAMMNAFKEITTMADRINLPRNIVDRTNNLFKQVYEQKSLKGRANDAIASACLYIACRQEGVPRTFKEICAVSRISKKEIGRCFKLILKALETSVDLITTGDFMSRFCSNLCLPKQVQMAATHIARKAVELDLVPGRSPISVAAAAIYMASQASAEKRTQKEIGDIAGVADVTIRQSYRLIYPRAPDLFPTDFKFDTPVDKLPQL

The assay “MED20” concerns the target B6.
In the assay “MED28” the target is B5.
For another assay, the target named is T3, MED30 (human, UniProt Q96HR3 1-178).
T3 sequence: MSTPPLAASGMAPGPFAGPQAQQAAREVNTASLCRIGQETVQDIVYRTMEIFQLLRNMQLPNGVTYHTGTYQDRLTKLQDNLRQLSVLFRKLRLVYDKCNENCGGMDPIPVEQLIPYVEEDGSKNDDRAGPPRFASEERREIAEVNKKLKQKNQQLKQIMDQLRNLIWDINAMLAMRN

A further assay concerns the target MED14 (human, UniProt O60244 1-1454).
For a further assay, the target named is T4, MED17 (human, UniProt Q9NVC6 1-651).
T4 sequence: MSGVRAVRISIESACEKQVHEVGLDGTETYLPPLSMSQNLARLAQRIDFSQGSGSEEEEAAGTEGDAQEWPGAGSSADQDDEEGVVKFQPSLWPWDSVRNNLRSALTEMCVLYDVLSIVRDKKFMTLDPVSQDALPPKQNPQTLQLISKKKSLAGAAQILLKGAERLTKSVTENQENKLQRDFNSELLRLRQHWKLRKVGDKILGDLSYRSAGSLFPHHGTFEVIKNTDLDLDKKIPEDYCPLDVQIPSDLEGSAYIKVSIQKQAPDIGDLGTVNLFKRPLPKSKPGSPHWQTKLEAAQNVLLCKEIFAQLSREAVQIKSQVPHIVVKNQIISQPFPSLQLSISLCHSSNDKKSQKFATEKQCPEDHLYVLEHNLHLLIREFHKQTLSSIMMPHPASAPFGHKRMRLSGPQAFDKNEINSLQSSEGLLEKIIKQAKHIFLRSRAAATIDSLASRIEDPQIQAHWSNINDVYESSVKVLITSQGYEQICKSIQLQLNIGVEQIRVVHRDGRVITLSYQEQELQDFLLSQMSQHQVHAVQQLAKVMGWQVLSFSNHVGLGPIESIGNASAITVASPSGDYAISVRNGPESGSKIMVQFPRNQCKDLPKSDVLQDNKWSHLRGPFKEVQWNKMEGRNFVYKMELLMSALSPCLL

The assay “MED27” has as its target B4.
In a further assay the target is T5, MED4 (human, UniProt Q9NPJ6 1-270).
T5 sequence: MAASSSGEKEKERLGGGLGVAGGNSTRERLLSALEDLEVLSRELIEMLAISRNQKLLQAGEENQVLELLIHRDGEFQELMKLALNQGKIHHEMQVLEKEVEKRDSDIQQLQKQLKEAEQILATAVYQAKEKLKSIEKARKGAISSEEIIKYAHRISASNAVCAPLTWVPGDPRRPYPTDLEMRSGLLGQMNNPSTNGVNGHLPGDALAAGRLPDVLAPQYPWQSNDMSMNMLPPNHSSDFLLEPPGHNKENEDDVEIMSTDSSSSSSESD

For a further assay, the target named is T6, MED7 (human, UniProt O43513 1-233).
T6 sequence: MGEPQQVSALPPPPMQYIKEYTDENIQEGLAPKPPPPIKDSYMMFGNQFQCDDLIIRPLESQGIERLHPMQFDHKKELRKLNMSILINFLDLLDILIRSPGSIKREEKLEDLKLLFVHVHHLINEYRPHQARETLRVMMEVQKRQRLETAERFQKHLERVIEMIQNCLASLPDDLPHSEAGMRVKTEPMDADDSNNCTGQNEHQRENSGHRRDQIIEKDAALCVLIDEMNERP

Sequence of MED14 (O60244 whole entry): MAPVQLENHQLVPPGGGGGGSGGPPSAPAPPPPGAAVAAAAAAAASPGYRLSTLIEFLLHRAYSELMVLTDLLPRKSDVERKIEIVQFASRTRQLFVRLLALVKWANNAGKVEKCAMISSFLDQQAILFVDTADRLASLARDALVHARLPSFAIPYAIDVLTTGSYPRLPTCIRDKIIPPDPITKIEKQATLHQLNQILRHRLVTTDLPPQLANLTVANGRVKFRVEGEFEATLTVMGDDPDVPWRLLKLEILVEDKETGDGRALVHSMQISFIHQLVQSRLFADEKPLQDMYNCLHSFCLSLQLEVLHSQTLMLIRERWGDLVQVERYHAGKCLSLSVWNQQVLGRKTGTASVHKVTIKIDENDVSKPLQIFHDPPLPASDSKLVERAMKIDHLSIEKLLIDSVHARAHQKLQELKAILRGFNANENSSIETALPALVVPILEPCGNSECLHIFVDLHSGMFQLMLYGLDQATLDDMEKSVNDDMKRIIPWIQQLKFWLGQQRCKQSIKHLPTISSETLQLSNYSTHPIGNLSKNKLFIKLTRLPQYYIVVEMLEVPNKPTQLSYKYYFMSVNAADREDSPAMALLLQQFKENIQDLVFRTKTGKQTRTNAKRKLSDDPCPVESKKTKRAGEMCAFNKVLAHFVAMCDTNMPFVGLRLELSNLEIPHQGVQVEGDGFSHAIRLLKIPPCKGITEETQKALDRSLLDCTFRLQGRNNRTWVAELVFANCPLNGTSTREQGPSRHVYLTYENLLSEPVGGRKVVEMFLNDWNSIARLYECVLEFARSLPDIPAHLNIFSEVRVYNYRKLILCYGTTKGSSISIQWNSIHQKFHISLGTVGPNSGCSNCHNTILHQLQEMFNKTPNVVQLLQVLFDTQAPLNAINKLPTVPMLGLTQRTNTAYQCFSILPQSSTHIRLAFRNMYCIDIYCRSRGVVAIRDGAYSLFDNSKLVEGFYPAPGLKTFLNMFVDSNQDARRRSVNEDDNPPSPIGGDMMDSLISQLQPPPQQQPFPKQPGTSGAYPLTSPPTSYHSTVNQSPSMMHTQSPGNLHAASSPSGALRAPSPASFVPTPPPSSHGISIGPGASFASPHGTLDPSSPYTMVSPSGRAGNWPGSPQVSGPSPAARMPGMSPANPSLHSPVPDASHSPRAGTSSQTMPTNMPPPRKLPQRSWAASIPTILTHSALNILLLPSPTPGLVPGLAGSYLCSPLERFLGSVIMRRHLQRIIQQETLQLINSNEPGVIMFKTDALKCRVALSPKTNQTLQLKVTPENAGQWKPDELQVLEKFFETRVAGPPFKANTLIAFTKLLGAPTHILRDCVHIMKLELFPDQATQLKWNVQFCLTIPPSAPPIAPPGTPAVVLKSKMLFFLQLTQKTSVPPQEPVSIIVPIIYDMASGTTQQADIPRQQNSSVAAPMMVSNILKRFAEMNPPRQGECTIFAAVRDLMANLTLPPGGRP

B1: MED6 (natural protein)
chain: MAAVDIRDNLLGISWVDSSWIPILNSGSVLDYFSERSNPFYDRTCNNEVVKMQRLTLEHLNQMVGIEYILLHAQEPILFIIRKQQRQSPAQVIPLADYYIIAGVIYQAPDLGSVINSRVLTAVHGIQSAFDEAMSYCRYHPSKGYWWHFKDHEEQDKVRPKAKRKEEPSSIFQRQRVDALLLDLRQKFPPKFVQLKPGEKPVPVDQTKKEAEPIPETVKPEEKETTKNVQQTVSAKGPPEKRMRLQ
In the case of B1, the binding result with MED8 was “binds”.

B2: MED18 (natural protein)
chain: MEAPPVTMMPVTGGTINMMEYLLQGSVLDHSLESLIHRLRGLCDNMEPETFLDHEMVFLLKGQQASPFVLRARRSMDRAGAPWHLRYLGQPEMGDKNRHALVRNCVDIATSENLTDFLMEMGFRMDHEFVAKGHLFRKGIMKIMVYKIFRILVPGNTDSTEALSLSYLVELSVVAPAGQDMVSDDMKNFAEQLKPLVHLEKIDPKRLM
On to B2, for which the binding result in the assay with TFIIB, with MED8 and in the assay with MED20 was “binds” in each case.

B3: MED11 (natural protein)
chain: MATYSLANERLRALEDIEREIGAILQNAGTVILELSKEKTNERLLDRQAAAFTASVQHVEAELSAQIRYLTQVATGQPHEGSSYSSRKDCQMALKRVDYARLKLSDVARTCEQMLEN
As for B3, the binding result with MED28 and with MED30 was “binds” throughout.

On to B4, for which the binding result with MED14 and in the assay with MED17 was “binds” each time.

As to B5, the binding result with MED30 is on record as “binds”.

As for B6, the binding result with MED27 and with MED8 was “binds” each time.

B7: MED31 (natural protein)
chain: MAAAVAMETDDAGNRLRFQLELEFVQCLANPNYLNFLAQRGYFKDKAFVNYLKYLLYWKDPEYAKYLKYPQCLHMLELLQYEHFRKELVNAQCAKFIDEQQILHWQHYSRKRMRLQQALAEQQQQNNTSGK
In the case of B7, the binding result with MED14, with MED4 and in the assay with MED7 was “binds” throughout.
